Measurements reported in article doi:10.1101/2024.12.12.628194.

Experiments:
[1] = target: TaqCad1 (CARF-fused adenosine deaminase Cad1 from Thermoanaerobaculum aquaticum), wild type (Thermoanaerobaculum aquaticum); assay: cryo-EM structure
[2] = target: TaqCad1 R408D/A411E variant (Thermoanaerobaculum aquaticum); assay: SEC

stoichiometry N [1]	stoichiometry N [2]	Substance
6	–	TaqCad1 (CARF-fused adenosine deaminase Cad1 from Thermoanaerobaculum aquaticum), wild type (enzyme)
–	2	TaqCad1 R408D/A411E variant (enzyme)
